In patent publication US6855815 (Amgen, dated 2005):

Assays:
[1] = biological target: T1, c-IAP1 N-terminally tagged with a FLAG epitope peptide (Homo sapiens (Human), UniProt Q13490 1-618); assay: co-immunoprecipitation from transfected 293 cells (anti-TNF-R2 IP, anti-FLAG Western)
T1 construct: Expressed in human embryonic 293 cells from a pRK vector (CMV promoter); also called FLAG-tagged c-IAP1
Experimental: A transfection based co-immunoprecipitation assay was used to investigate how c-IAP1 interacts with the complex of TNF-R2 and TRAFs. In this system c-IAP1 was N-terminally tagged with a FLAG epitope peptide and expressed in human embryonic 293 cells under the control of a constitutive CMV promotor (pRK vector). The c-IAP1 expression vector was transiently co-transfected into 293 cells with expression vectors for TNF-R2 and TRAFs. After 24–36 h, the cells were harvested and extracts immunoprecipitated with anti-TNF-R2 antibodies, followed by Western analysis with anti-FLAG antibodies. […] Thus, c-IAP1 is a component of the TNF-R2 (CD40)/TRAF signaling complex.

[2] = biological target: T2, human cellular inhibitor of apoptosis protein 2 (c-IAP2) (human, UniProt Q13489 1-604); assay: yeast two-hybrid
T2 construct: The two-hybrid fusion partners are not described; also called h c-IAP2
T2 sequence (Q13489 whole entry, the tested form may be a part): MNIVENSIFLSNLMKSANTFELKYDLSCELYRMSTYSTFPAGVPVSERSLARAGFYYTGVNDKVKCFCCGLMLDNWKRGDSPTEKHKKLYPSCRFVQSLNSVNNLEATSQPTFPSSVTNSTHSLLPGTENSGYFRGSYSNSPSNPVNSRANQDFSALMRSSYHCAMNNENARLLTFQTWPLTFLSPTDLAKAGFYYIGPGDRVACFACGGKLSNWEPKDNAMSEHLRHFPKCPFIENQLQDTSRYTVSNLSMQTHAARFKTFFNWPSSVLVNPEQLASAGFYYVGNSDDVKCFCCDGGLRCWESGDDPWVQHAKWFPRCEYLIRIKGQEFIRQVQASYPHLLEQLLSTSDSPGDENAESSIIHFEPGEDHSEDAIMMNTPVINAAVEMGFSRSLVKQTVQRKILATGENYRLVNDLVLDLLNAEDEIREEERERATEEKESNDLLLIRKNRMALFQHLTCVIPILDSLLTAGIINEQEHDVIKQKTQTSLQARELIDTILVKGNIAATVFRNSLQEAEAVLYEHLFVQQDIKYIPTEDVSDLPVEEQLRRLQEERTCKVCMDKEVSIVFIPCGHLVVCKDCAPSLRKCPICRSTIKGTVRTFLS
Source text: (§1) A yeast two-hybrid system was used to determine how c-IAP1 and -2 interact with TNF-R2 and/or TRAFs. The following results were obtained indistinguishably for c-IAP1 and c-IAP2. […] However, a direct interaction could be detected between c-IAP1 and TRAF2. […] Consistently, c-IAP1 also interacted with TRAF1. […] Thus c-IAP1 and TNF-R2 bind to non-overlapping docking sites within the TRAF domain of TRAF2. […] Similarly, combinations of two of the three BIR motifs e.g. amino acid residues 46–99 and 204–249 of c-IAP1 and 29–82 and 189–234 of c-IAP2, separated by IAP1 derived intervening sequences of varying lengths are assayed for TRAF1 and TRAF2 binding. […] The RING finger domain of c-IAP1/2 (amino acids 571–618 of c-IAP1 and 557–604 of c-IAP2) is not required for interaction with TRAFs, but rather mediates subsequent steps in the c-IAP1/2 signaling cascade. Similarly, a variety of c-IAP1 derived N-terminal leader sequences fused to the c-IAP1 RING finger domain are used to assay signal transduction mediation.

[3] = biological target: T3, human cellular inhibitor of apoptosis protein 1 (c-IAP1) (human, UniProt Q13490 1-618); assay: yeast two-hybrid
T3 construct: Tested in a yeast two-hybrid system; also called h c-IAP1
T3 sequence (Q13490 whole entry): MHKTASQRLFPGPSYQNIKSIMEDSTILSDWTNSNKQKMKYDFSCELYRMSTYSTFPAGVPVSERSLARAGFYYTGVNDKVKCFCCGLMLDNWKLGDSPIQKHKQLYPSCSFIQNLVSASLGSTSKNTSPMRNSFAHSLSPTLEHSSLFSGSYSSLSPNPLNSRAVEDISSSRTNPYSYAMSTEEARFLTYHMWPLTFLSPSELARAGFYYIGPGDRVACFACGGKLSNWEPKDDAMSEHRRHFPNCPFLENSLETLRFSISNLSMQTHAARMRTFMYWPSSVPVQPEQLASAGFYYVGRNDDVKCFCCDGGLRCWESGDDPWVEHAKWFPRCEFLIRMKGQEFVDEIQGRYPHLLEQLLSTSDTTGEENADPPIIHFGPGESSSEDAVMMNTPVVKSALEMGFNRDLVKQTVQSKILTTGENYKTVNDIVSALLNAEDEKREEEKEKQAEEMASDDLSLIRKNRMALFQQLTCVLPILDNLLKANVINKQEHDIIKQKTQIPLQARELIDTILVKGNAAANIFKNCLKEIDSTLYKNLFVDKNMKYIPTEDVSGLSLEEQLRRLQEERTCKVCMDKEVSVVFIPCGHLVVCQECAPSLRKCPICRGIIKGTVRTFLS
Source text: as §1

Measured: binding result

T1 sequence (Q13490 whole entry): as above

B1: TNF-R2 (receptor, UniProt P20333 288-461, looked up)
chain: KKKPLCLQREAKVPHLPADKARGTQGPEQQHLLITAPSSSSSSLESSASALDRRAPTRNQPQAPGVEASGAGEARASTGSSDSSPGGHGTQVNVTCIVNVCSSSDHSSQCSSQASSTMGDTDSSPSESPKDEQVPFSKEECAFRSQLETPETLLGSTEEKPLPLGVPDAGMKPS
notes: In the co-immunoprecipitation it was expressed from a vector in 293 cells
no binding: [1] | [2] | [3]
